From patent US20140093973A1 (BOARD OF REGENTS OF THE UNIVERSITY OF OKLAHOMA, published 2014)
Ends that are not written are not given here.

How the values were obtained:
[1] = biological target: T1, soluble HLA-A*2902 (human); test: FP competition against 1.5 nM FITC-labeled P2(A*0101), 49.9 µg/ml sHLA A*2902T (1224)
T1 construct: Member of the panel of 53 single-specificity sHLA

[2] = biological target: T2, soluble HLA-A*0101 (human); test: FP competition against 1.6 nM FITC-labeled P2(A*0101), 41.0 µg/ml sHLA A*0101T (C22)
T2 construct: Member of the panel of 53 single-specificity sHLA

[3] = biological target: T3, soluble HLA-A*2402 (human); test: FP screen of 53 sHLA with FITC-peptide
T3 construct: Member of the panel of 53 single-specificity sHLA

[4] = biological target: T4, soluble HLA-A*4301 (sHLA-A*4301) (human); test: FP screen
T4 construct: Recombinant soluble class I with endogenous peptides, made as m1

[5] = biological target: soluble HLA-A*0201 (sHLA-A*0201) (human); test: FP screen
[6] = biological target: T5, soluble HLA-B*4002 (human); test: FP screen
T5 construct: Member of the panel of 53 single-specificity sHLA

[7] = biological target: T6, soluble HLA-A*1102 (sHLA-A*1102) (human, UniProt P04439 25-308; P61769 21-119); test: FP screen
T6 construct: Recombinant soluble class I with endogenous peptides, made as m1

[8] = biological target: T7, soluble HLA-A*6801 (sHLA-A*6801) (human); test: FP screen
T7 construct: Recombinant soluble class I with endogenous peptides, made as m1

[9] = biological target: T8, soluble HLA-A*2601 (human); test: FP screen
T8 construct: Member of the panel of 53 single-specificity sHLA

[10] = biological target: T2, soluble HLA-A*0101; test: FP screen
[11] = biological target: T9, soluble HLA-A*3002 (human); test: FP screen
T9 construct: Member of the panel of 53 single-specificity sHLA

[12] = biological target: T10, soluble HLA-A*0301 (human); test: FP screen
T10 construct: Member of the panel of 53 single-specificity sHLA

[13] = biological target: T11, soluble HLA-B*1801 (human); test: FP screen
T11 construct: Member of the panel of 53 single-specificity sHLA

[14] = biological target: T12, soluble HLA-A*3402 (human); test: FP screen
T12 construct: Member of the panel of 53 single-specificity sHLA

[15] = biological target: T13, soluble HLA-B*1302 (human); test: FP screen
T13 construct: Member of the panel of 53 single-specificity sHLA

[16] = biological target: T14, soluble HLA-B*2705 (sHLA-B*2705) (human); test: FP screen
T14 construct: Recombinant soluble class I with endogenous peptides, made as m1; negative control

[17] = biological target: T15, soluble HLA-B*1512 (human); test: FP screen
T15 construct: Member of the panel of 53 single-specificity sHLA

[18] = biological target: T16, soluble HLA-B*4402 (human); test: FP screen
T16 construct: Member of the panel of 53 single-specificity sHLA

[19] = biological target: T17, soluble HLA-A*3601 (human); test: FP screen
T17 construct: Member of the panel of 53 single-specificity sHLA

[20] = biological target: B*0702T (human, UniProt P61769); test: FP competition against 1.9 nM FITC-labeled P1(B*0702), 40 µg/ml sHLA B*0702T (955)

ATDFKFAMY [C1(A*0101)]
IC50 [1]: 8630 nM | IC50 [2]: 1570 nM

KYPENKFLL (also: FITC-labeled, position not given here) [KYPENKFLL, FITC-labeled A24-like peptide]
binding result [3]: binds | binding result [4]: no binding (tested: 100 ug/ml sHLA) | binding result [5]: no binding (tested: 100 ug/ml sHLA) | binding result [6]: no binding (tested: 100 ug/ml sHLA) | binding result [7]: no binding (tested: 100 ug/ml sHLA) | binding result [8]: no binding (tested: 100 ug/ml sHLA) | binding result [9]: no binding (tested: 100 ug/ml sHLA) | binding result [10]: no binding (tested: 100 ug/ml sHLA) | binding result [11]: no binding (tested: 100 ug/ml sHLA) | binding result [12]: no binding (tested: 100 ug/ml sHLA) | binding result [13]: no binding (tested: 100 ug/ml sHLA) | binding result [14]: no binding (tested: 100 ug/ml sHLA) | binding result [15]: no binding (tested: 100 ug/ml sHLA) | binding result [16]: no binding (tested: 100 ug/ml sHLA) | binding result [17]: no binding (tested: 100 ug/ml sHLA) | binding result [18]: no binding (tested: 100 ug/ml sHLA) | binding result [19]: no binding (tested: 100 ug/ml sHLA)

LVMAPRTVL
IC50 [20]: 276 nM
